Data from US20200040401A1 (KAOHSIUNG MEDICAL UNIVERSITY, published 2020).

B1: endogenous GNMT of mouse liver (enzyme, UniProt Q9QXF8 2-293, looked up)
chain: VDSVYRTRSLGVAAEGLPDQYADGEAARVWQLYIGDTRSRTAEYKAWLLGLLRQHGCHRVLDVACGTGVDSIMLVEEGFSVMSVDASDKMLKYALKERWNRRKEPSFDNWVIEEANWLTLDKDVLSGDGFDAVICLGNSFAHLPDCKGDQSEHRLALKNIASMVRPGGLLVIDHRNYDYILSTGCAPPGKNIYYKSDLTKDITTSVLTVNNKAHMVTLDYTVQVPGTGRDGSPGFSKFRLSYYPHCLASFTELVRAAFGGRCQHSVLGDFKPYKPGQAYVPCYFIHVLKKTD
B2: glycine-N-methyltransferase (GNMT) (enzyme)
chain: VDSVYRTRSLGVAAEGLPDQYADGEAARVWQLYIGDTRSRTAEYKAWLLGLLRQHGCQRVLDVACGTGVDSIMLVEEGFSVTSVDASDKMLKYALKERWNRRHEPAFDKWVIEEANWMTLDKDVPQSAEGGFDAVICLGNSFAHLPDCKGDQSEHRLALKNIASMVRAGGLLVIDHRNYDHILSTGCAPPGKNIYYKSDLTKDVTTSVLIVNNKAHMVTLDYTVQVPGAGQDGSPGLSKFRLSYYPHCLASFTELLQAAFGGKCQHSVLGDFKPYKPGQTYIPCYFIHVLKRTD

Columns and labels:
[1] = target: endogenous PREX2 of mouse liver (mouse, UniProt Q3LAC4 1-1598, limits assumed); assay: reciprocal co-IP, mouse liver lysates (FIG. 1B)
From the text: FIG. 1B depicts that mouse liver lysates were used for reciprocal co-IP assay followed by IB analysis.
Please refer to FIG. 1A to FIG. 1G, which illustrates that GNMT interacts with PREX2 and negatively regulates PREX2-mediated AKT signaling. As the data in FIG. 1A illustrated, GNMT interacted with endogenous PREX2. […] To map the binding domain, different Myc-tagged PREX2 truncated mutants were co-expressed with Flag-tagged GNMT in HEK293T cells.

[2] = target: phosphatidylinositol 3,4,5-trisphosphate Rac exchange factor 2 (PREX2) (UniProt Q70Z35 1-1606, limits assumed); assay: cell-based or functional assay
Chain of phosphatidylinositol 3,4,5-trisphosphate Rac exchange factor 2 (PREX2) (Q70Z35 whole entry): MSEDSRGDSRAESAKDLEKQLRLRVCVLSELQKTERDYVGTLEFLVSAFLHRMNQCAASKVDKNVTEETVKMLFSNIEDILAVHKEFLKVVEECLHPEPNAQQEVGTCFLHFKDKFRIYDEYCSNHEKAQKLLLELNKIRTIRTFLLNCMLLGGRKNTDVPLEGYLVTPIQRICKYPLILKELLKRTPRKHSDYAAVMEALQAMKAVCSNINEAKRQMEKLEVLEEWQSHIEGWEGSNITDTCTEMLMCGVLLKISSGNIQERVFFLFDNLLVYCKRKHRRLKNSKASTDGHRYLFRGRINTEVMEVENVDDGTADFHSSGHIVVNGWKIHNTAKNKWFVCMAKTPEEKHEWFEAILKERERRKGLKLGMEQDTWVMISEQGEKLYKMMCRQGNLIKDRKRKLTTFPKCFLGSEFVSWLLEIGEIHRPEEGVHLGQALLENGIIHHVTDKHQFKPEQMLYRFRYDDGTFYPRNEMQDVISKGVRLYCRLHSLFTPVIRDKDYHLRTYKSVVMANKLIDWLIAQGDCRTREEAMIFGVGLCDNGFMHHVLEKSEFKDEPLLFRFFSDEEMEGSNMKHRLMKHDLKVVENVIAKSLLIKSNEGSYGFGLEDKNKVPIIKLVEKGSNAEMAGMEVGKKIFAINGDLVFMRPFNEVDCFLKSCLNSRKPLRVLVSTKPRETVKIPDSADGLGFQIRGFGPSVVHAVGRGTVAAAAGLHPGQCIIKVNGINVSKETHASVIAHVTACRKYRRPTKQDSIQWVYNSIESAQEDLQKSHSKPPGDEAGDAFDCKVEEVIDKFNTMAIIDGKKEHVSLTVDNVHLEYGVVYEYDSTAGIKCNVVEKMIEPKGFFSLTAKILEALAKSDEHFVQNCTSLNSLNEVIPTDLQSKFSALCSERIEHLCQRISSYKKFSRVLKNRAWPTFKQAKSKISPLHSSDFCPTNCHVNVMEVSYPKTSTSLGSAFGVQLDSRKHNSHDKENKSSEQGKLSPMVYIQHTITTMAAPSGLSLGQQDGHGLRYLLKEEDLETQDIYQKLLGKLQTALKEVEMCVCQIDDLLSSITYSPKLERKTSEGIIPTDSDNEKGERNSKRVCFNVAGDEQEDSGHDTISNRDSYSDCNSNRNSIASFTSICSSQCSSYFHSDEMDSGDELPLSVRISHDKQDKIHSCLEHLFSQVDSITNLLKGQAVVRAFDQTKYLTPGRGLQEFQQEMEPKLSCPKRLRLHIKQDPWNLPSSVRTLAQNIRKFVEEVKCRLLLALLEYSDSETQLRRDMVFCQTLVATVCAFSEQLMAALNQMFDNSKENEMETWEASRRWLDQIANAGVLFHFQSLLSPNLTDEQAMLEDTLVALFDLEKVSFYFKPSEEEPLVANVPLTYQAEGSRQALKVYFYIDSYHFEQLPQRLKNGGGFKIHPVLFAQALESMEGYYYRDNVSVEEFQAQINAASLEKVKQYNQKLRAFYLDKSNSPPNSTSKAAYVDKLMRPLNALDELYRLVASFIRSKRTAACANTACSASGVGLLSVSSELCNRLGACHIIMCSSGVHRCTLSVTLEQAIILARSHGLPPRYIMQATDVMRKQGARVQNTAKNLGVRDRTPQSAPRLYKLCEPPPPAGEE

Chain of endogenous PREX2 of mouse liver (Q3LAC4 whole entry): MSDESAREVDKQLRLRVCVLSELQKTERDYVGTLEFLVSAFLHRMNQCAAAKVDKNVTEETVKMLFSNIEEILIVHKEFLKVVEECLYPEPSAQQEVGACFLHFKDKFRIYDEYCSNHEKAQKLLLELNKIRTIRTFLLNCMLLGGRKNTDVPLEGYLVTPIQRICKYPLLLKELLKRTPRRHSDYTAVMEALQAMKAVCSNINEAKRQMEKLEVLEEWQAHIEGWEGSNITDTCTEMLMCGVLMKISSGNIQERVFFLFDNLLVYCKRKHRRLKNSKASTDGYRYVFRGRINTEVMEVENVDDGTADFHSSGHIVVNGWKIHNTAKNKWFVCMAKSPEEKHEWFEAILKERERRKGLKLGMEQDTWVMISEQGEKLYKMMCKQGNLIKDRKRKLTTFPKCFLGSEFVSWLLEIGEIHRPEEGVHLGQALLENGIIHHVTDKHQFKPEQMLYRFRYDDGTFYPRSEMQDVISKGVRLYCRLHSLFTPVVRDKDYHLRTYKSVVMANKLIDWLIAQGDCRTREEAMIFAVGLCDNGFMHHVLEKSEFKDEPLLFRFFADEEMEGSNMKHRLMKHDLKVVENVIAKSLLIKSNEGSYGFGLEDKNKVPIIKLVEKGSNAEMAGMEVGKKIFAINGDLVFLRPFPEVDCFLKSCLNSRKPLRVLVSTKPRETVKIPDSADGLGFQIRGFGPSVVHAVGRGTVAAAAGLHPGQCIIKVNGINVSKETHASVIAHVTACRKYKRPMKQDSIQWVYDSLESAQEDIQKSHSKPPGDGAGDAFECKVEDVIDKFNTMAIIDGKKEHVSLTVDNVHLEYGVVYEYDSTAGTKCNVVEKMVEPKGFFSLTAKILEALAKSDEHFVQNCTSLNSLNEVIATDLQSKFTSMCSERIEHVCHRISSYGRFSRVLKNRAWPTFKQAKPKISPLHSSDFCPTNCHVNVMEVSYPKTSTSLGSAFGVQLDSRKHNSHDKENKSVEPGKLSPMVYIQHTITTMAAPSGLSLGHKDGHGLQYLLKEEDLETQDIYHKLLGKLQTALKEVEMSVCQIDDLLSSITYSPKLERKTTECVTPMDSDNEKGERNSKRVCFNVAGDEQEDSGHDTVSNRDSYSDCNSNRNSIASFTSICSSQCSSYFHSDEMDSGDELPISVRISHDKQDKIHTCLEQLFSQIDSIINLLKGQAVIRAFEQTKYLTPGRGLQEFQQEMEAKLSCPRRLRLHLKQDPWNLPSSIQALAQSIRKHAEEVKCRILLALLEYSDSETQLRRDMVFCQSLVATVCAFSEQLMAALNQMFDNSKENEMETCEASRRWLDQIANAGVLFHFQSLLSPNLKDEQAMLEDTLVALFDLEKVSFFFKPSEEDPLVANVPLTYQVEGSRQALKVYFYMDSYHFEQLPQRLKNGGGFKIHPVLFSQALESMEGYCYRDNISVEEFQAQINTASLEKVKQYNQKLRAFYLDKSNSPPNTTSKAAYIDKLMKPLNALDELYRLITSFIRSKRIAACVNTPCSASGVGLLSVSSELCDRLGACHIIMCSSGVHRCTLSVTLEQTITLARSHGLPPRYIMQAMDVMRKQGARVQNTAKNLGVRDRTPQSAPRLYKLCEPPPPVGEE

binding result [1] | PREX2 half-life (pulse-chase, 35S-Methionine/Cysteine, Huh7 cells) [2] [h] | Binder
binds | – | B1
– | 9.4 | B2
